Earlier results on one molecule are cited in paper PMC3728333, “Development of an Epidermal Growth Factor Derivative with EGFR Blocking Activity” (PLoS ONE, 2013).

The test system of data set [1] is EGFR-positive breast cancer. The note with it: ref [44], [45]. The text has this:
(§1) Moreover, EGFt could also be used as a targeted toxin delivery agent. In this respect, we are currently developing ^111In–DTPA–EGFt as a potential Auger electron-emitting radiotherapeutic for EGFR-positive breast cancer.

For data set [2], the system named is EGFR-positive breast cancer cells.
Source text: as §1

B1: ^111In-DTPA-hEGF: ^111In-DTPA-hEGF, Kd value obtained from previous work (conjugate, UniProt P01133 23-1207, looked up)
Pro-epidermal growth factor: PQHWSCPEGTLAGNGNSTCVGPAPFLIFSHGNSIFRIDTEGTNYEQLVVDAGVSVIMDFHYNEKRIYWVDLERQLLQRVFLNGSRQERVCNIEKNVSGMAINWINEEVIWSNQQEGIITVTDMKGNNSHILLSALKYPANVAVDPVERFIFWSSEVAGSLYRADLDGVGVKALLETSEKITAVSLDVLDKRLFWIQYNREGSNSLICSCDYDGGSVHISKHPTQHNLFAMSLFGDRIFYSTWKMKTIWIANKHTGKDMVRINLHSSFVPLGELKVVHPLAQPKAEDDTWEPEQKLCKLRKGNCSSTVCGQDLQSHLCMCAEGYALSRDRKYCEDVNECAFWNHGCTLGCKNTPGSYYCTCPVGFVLLPDGKRCHQLVSCPRNVSECSHDCVLTSEGPLCFCPEGSVLERDGKTCSGCSSPDNGGCSQLCVPLSPVSWECDCFPGYDLQLDEKSCAASGPQPFLLFANSQDIRHMHFDGTDYGTLLSQQMGMVYALDHDPVENKIYFAHTALKWIERANMDGSQRERLIEEGVDVPEGLAVDWIGRRFYWTDRGKSLIGRSDLNGKRSKIITKENISQPRGIAVHPMAKRLFWTDTGINPRIESSSLQGLGRLVIASSDLIWPSGITIDFLTDKLYWCDAKQSVIEMANLDGSKRRRLTQNDVGHPFAVAVFEDYVWFSDWAMPSVMRVNKRTGKDRVRLQGSMLKPSSLVVVHPLAKPGADPCLYQNGGCEHICKKRLGTAWCSCREGFMKASDGKTCLALDGHQLLAGGEVDLKNQVTPLDILSKTRVSEDNITESQHMLVAEIMVSDQDDCAPVGCSMYARCISEGEDATCQCLKGFAGDGKLCSDIDECEMGVPVCPPASSKCINTEGGYVCRCSEGYQGDGIHCLDIDECQLGEHSCGENASCTNTEGGYTCMCAGRLSEPGLICPDSTPPPHLREDDHHYSVRNSDSECPLSHDGYCLHDGVCMYIEALDKYACNCVVGYIGERCQYRDLKWWELRHAGHGQQQKVIVVAVCVVVLVMLLLLSLWGAHYYRTQKLLSKNPKNPYEESSRDVRSRRPADTEDGMSSCPQPWFVVIKEHQDLKNGGQPVAGEDGQAADGSMQPTSWRQEPQLCGMGTEQGCWIPVSSDKGSCPQVMERSFHMPSYGTQTLEGGVEKPHSLLSANPLWQQRALDPPHQMELTQ
modifications: Pro-epidermal growth factor 111In-DTPA
Consider B1, for which the “tumour growth inhibition in vivo” value in data set [1] is given as “tumour growth-inhibition in vivo”. The “cytotoxic effects in vitro” value in data set [2] is given as “potent cytotoxic effects in vitro”.
